Values quoted from earlier work, collected in article PMC4370504.

Target: ubiquitin (Homo sapiens) (UniProt P0CG47)
Experiment: ITC

Chain of Pol eta UBZ (Q9Y253 625-665): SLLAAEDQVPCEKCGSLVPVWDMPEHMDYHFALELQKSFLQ

Pol eta UBZ (from UniProt Q9Y253)
Kd: 81 µM
